This note sets out measurements from patent US20230272099A1 (Chugai, published 2023).

Experiment [1] deals with T1, biotinylated Fc-fused monkey CD137 (monkey, biotin on the AviTag).
T1 construct: also called cyCD137-Fc-BAP
Nature of the experiment: ELISA, 1 mM ADP, 0.039 ug/mL. Details: reference not given here. On the procedure:
(§1) The obtained antibodies were evaluated for binding to monkey CD137 by ELISA. The cyCD137-Fc-BAP prepared in Reference Example 1 was immobilized on Streptawell microtiter plates. After the unbound antigen was removed from the plates by washing each well of the plates with the wash buffer, the wells were blocked with 150 μL of a blocking buffer (TBS with 2% BSA) for 1 hour or more. The blocking buffer was removed from each well, and 100 μL of the purified antibodies diluted in TBS with a final concentration of 1 mM ADP, or TBS with a final concentration 1 mM ADP was added to each well. The plate to which the antibody was added was shaken at 600 rpm for 1 hour. The AP-conjugated anti-human lambda antibodies (BETHYL) diluted in TBS with a final concentration of 1 mM ADP were added to each well after washing with a wash buffer (TBS with 0.1% Tween20) containing a final concentration of 1 mM ADP. After incubation for one hour and washing with a wash buffer containing a final concentration of 1 mM […], BluePhos phosphate substrate (KPL) was added. Color development was measured by absorbance at 600 nm. Samples with a concentration-dependent increase in the absorbance ratio can be said to be bound to monkey CD137.

Experiment [2] concerns the target T1, biotinylated Fc-fused monkey CD137. Nature of the experiment: ELISA, 1 mM ADP, 2.5 ug/mL. Details: reference not given here. The procedure:
as §1

Experiment [3] has the same target. Nature of the experiment: ELISA, 1 mM ADP, 0.010 ug/mL. Details: reference not given here. The procedure: as §1
For orientation: An ELISA detects its analyte on a solid surface through an enzyme-linked reagent.

Experiment [4] shares this target. Nature of the experiment: ELISA, 1 mM ADP, 0.625 ug/mL. Details: reference not given here. On the procedure:
as §1

For experiment [5] the target is unchanged. Nature of the experiment: ELISA, 1 mM ADP, 10 ug/mL. Further details: reference not given here. On the procedure:
as §1

For experiment [6] the target is unchanged. Nature of the experiment: ELISA, 1 mM ADP, 0.156 ug/mL. Details: reference not given here. The procedure:
as §1

The target in another experiment is human FcRn (human, UniProt P55899 24-290; P61769 21-119). Description: SPR 25C pH 6.0, steady state. Put shortly: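 Antibody (~400 RU) captured on anti-Fab-lambda sensor chip, human FcRn injected as analyte.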
In experiment [7] the target is T2, human FcgRIIIa V158 extracellular domain (human, UniProt P08637 17-208).
T2 construct: extracellular domain; also called hFcgRIIIaV
Description: SPR 25C.

In experiment [8] the target is T3, human FcgRIa extracellular domain (human, UniProt P12314 16-292).
T3 construct: extracellular domain; also called hFcgRIa
Description: SPR 25C.

For experiment [9], the target named is T4, human FcgRIIa type R extracellular domain (human, UniProt P12318 34-217).
T4 construct: extracellular domain; also called hFcgRIIaR
T4 sequence (looked up): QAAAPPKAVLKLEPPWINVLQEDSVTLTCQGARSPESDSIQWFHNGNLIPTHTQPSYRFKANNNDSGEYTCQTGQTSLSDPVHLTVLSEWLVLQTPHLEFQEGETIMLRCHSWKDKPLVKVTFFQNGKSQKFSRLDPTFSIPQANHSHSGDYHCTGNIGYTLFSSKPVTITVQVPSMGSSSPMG
Description: SPR 25C.

Experiment [10] deals with T5, human FcgRIIIa F158 extracellular domain (human, UniProt P08637 17-208).
T5 construct: extracellular domain; also called hFcgRIIIaF
Nature of the experiment: SPR 25C.

Experiment [11] concerns the target T6, human FcgRIIb extracellular domain (human, UniProt P31994 43-217).
T6 construct: extracellular domain; also called hFcgRIIb
T6 sequence (looked up): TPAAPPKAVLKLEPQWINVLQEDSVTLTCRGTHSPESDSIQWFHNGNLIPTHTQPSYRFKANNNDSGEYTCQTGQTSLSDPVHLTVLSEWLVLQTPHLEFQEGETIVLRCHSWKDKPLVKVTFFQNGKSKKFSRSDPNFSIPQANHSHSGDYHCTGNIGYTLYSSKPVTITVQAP
Nature of the experiment: SPR 25C.

For experiment [12], the target named is T7, human FcgRIIa type H extracellular domain (human, UniProt P12318 34-217).
T7 construct: extracellular domain; also called hFcgRIIaH
T7 sequence (looked up): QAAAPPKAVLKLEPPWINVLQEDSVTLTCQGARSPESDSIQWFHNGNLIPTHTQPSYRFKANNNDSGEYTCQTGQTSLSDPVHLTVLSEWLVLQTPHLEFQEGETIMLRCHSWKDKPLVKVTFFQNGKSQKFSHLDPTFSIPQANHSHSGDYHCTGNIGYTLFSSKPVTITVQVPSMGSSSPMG
Nature of the experiment: SPR 25C.

T1 sequence (chain, as listed by the source limits assumed): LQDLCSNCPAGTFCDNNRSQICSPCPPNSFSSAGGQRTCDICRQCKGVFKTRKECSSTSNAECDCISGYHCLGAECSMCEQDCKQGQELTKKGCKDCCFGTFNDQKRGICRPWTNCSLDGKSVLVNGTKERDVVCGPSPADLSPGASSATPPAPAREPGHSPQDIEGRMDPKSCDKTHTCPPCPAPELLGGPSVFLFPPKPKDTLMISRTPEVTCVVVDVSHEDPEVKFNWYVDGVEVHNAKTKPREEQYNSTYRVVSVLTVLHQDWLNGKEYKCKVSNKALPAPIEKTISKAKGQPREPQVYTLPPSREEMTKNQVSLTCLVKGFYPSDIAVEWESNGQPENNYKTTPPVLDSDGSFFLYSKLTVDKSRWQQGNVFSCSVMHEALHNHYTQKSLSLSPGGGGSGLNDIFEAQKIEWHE
T3 sequence (P12314 16-292): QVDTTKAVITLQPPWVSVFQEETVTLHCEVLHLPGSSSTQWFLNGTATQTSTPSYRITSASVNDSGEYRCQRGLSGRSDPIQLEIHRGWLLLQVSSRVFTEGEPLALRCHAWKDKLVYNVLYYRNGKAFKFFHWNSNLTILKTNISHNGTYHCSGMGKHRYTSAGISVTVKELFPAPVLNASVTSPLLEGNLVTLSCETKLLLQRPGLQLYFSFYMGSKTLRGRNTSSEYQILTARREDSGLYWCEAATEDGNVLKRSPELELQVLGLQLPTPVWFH
T2 sequence (P08637 17-208 F176V): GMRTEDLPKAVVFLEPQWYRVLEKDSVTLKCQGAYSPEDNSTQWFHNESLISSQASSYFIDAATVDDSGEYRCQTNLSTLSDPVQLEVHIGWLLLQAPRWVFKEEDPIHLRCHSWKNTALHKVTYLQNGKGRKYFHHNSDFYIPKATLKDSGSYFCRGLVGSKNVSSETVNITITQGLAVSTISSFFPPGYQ
T5 sequence (P08637 17-208): as the sequence (P08637 17-208 F176V) above, with V160F counted along it
human FcRn, sequence (P55899 24-290 limits assumed, chain 1 of 2): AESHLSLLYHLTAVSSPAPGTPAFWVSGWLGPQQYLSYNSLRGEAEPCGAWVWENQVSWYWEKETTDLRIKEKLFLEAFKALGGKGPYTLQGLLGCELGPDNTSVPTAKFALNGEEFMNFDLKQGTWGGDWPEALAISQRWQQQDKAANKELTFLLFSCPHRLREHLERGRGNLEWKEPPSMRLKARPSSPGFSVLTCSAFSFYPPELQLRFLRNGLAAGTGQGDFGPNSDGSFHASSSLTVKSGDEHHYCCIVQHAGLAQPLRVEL
human FcRn, sequence (P61769 21-119 limits assumed, chain 2 of 2): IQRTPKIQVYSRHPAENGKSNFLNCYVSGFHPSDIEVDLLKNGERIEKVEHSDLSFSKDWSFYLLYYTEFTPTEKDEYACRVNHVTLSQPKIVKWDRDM

B1: dBBAT053-P253 (antibody, human IgG1, lambda, V domains shown)
VH: EVQLVESGGDLVKPGGGLRLSCAASGFTFSTFTMNWVRQAPGKGLEWVSSISSRSNYIYYADSVKGRFTISRDNAKNSLYLQMNSLRAEDTAVYYCARFGLKNEMNWVFDYWGQGTLVTVSS
VL: QSALTQPPSASGSPGQTVTISCTGTSSDVGFYNYVSWYQQHPGKAPKLMIYEGSKKPSGVPDRFSGSKSGNTASLTVSGLQAEDEADYFCSVYSYIYYVLFGGGTKLTVLG
Turning to B1, the absorbance ratio in experiment [1] amounted to 0.7; in experiment [2], 6.9; in experiment [3], 0.8; in [4] it was 2.3; in experiment [5], 17.9; in experiment [6], 1.

B2: dBBAT007-P253 (antibody, human IgG1, lambda, V domains shown)
VH: EVQLVESGGDLVKPGGGLRLSCAASGFTFSGYTMNWVRQAPGKGLEWVSSISSRSNYAHYADSVKGRFTISRDNAKNSLYLQMNSLRAEDTAVYYCARFGLKNFMNWVFDYWGQGTLVTVSS
VL: QSALTQPPSASGSPGQTVTISCTGTSSDVGFYNYVSWYQQHPGKAPKLMIYGTSKRPSGVPDRFSGSKSGNTASLTVSGLQAEDEADYFCSSYAYDAQLVFGGGTKLTVLG
Consider B2, for which the absorbance ratio in experiment [1] was 0.7; in [2] it was 30.2; in experiment [3], 3.8; in experiment [4] it was 29.2; in experiment [5] it was 30.5; in experiment [6], 22.

B3: dBBAT015-P253 (antibody, human IgG1, lambda, V domains shown)
VH: EVQLVESGGDLVKPGGGLRLSCAASGFTFSTYTMNWVRQAPGKGLEWVSSISSRSTYATYADSVKGRFTISRDNAKNSLYLQMNSLRAEDTAVYYCARYGLKNSLNWVFDYWGQGTLVTVSS
VL: QSALTQPPSASGSPGQTVTISCTGTSTDVGFYNYVSWYQQHPGKAPKLMIYEVSKKPSGVPDRFSGSKSGNTASLTVSGLQAEDEADYFCSTYSYDESVAFGGGTKLTVLG
For B3, the absorbance ratio in experiment [1] came to 1.5; in experiment [2] it was 32.4; in [3] it was 1.1; in experiment [4] it was 14.4; in experiment [5] it was 42.9; in [6], 3.6.

B4: dBBAT134-P253 (antibody, human IgG1, lambda, V domains shown)
VH: EVQLVESGGDLVKPGGGLRLSCAASGFTFSSYTMNWVRQAPGKGLEWVSSISSRSNYADYADSVKGRFTISRDNAKNSLYLQMNSLRAEDTAVYYCARYGAKNEMNWVFDYWGQGTLVTVSS
VL: QSALTQPPSASGSPGQTVTISCTGTSTDVGFYNYVSWYQQHPGKAPKLMIYEVSKRPSGVPDRFSGSKSGNTASLTVSGLQAEDEADYFCSSYTYDQQLMFGGGTKLTVLG
On to B4, for which the absorbance ratio stood at 1.2 in experiment [1]; 16.8 in [2]; 1 in experiment [3]; 5.8 in experiment [4]; 33.9 in [5]; 2.2 in experiment [6].

B5: A375-TT16/B167-Lamlib (antibody, human IgG1, lambda)
heavy: EVQLVESGGGLVKPGGSLRLSCAASGFTFSTFTMNWVRQAPGKGLEWVSSISSKSTYIEYADSFKVRFTISRDNAKNSLYLQMNSLRAEDTAVYYCARYGAKNFLNWVFDYWGQGTLVTVSSASTKGPSVFPLAPSSKSTSGGTAALGCLVKDYFPEPVTVSWNSGALTSGVHTFPAVLQSSGLYSLSSVVTVPSSSLGTQTYICNVNHKPSNTKVDKKVEPKSCDKTHTCPPCPAPEYLGDDSVFLFPPKPKDVLMISRTPEVTCVVVDVSHEDPEVKFNWYVDGVEVHNAKTKPREEQYNSTYRVVSVLPVLHQDWLNGKEYKCKVSNKALPKPIEKTISKAKGQPREPQVYTLPPSREEMTKNQVSLTCLVKGFYPSDIAVEWESNGQPENNYKTTPPVLDSDGSFFLYSKLTVDKSRWQQGNVFSCSVMHEALHNHYTQKSLSLSP
light: QSALTQPPSASGSPGQTVTISCTGTRYDVGYYEYVSWYQQHPGKAPKLMIYETSKRLSGVPDRFSGSKSGNTASLTVSGLQAEDEADYYCSSYRYEHQVSFGGGTKLTVLGQPKAAPSVTLFPPSSEELQANKATLVCLISDFYPGAVTVAWKADSSPVKAGVETTTPSKQSNNKYAASSYLSLTPEQWKSHRSYSCQVTHEGSTVEKTVAPTECS
notes: copies: 2 + 2
Consider B5, for which the Kd (commonly the constant that tells how readily two partners part at equilibrium) with human FcRn is 1.51 µM. Moreover, the “binding per 1RU antibody” value in experiment [7] is -0.0002 RU; in [8] it was 0.0034 RU; in experiment [9], 0.0359 RU; in experiment [10], 0.0001 RU; in experiment [11], 0.109 RU; in [12] it was 0.0126 RU. Further, the “relative binding (A375-G1T3/B167-Lamlib=1)” value amounted to 0 in experiment [7]; 0.04 in experiment [8]; 0.77 in experiment [9]; 0 in experiment [10]; 9.94 in experiment [11]; 0.22 in experiment [12].
